{"source": "patent US20150351390A1", "about": "“COMPOSITIONS AND METHODS FOR AUXIN-ANALOG CONJUGATION” (PIONEER HI-BRED INTERNATIONAL, INC., priority 2012, published 2015)", "molecules": {"B1": {"name": "AtGH3-13: GH3 protein, accession CAB86642 (protein, listed as Arabidopsis thaliana)", "chain": "MLPKFDLTDPKASLSLLEDVTTNVTQIQDSILEAVLSRNAHTEYLKGFLNGQVDKQTFKKNVPIVTYEDIKPYINRIANGEASDLICDRPISLLVMSSGTTAGIQNLIPLTTEDGEQRIMFGSLYRSLLYKYVEGIREGKSLTFYFVNPERETASGILIRTMITCILKSVNKTNSSLWDRLQISPHEISTCEDTTQSMYCQLLCGLLQRDNVARLGAPFASVFIRVIKYLEGHWQELCSNIRTGRLSDWITDPQCVSGISKFLTAPNPDLASLIEQECSKTSWEAIVKRLWPKAKCVEAVVTGSMAQYIPLLEFYGGGLPLISSWYGSSECFMGVNVNPLCKPSDVSYTIIPSMAYFEFLEVKKDQQEAGLDPIENHVVVDLVDVKIGHDYEPVVTTFSGLYRYRVGDLLRVTGFYNNSPHFRFVGRQKVVLSLHMANTYEEDLLKAVTNAKLLLEPHDLMLMEFTSRVDSSSFVGHYVLYWELGSKVKDAKLEPNRDVMEECCFTVEKYLDPLYRQERRKDKNIGPLEIKVVKPGAFDELMNFFLSRGSSVSQYKTPRSVKTEEAVKILEANVVSEFLSQETPPWG"}, "B2": {"name": "VvGH3-8: GH3 protein, accession XP_002271002 (protein, listed as Vitis vinifera)", "chain": "MADGEILKKLEDSTKDAVAVQLQTLHTILQRNGRSSYLQRYGASLDTGSFREAVPLSCYDDYADYIDRMADGGGGDDDGDRPLLSVDPLVCFFNSSGTSSMKPKLIPYFDSPPSKAASHIAHQGSVAILRRLFPPRQSINKVLWFLYAGNVTYTKGGFKAMAASAFPLQSNNKNPSPFLSTSASPREVILGSNVEQQMYCHILCGLRNLDFLDGIRAPYAVGLIRAFALLEFKWEQICEDLKCGFPSMEITDIAMRDSVTEVLAGPQLDLSKRIRTICEGKNWGGIVGKLWPNVRYIKCVCTGSMEQYYQKLKYYAGEIPVLGGDYFASECCVGINLDILQPPQLTRFVLLPTAAYFEFLPFTLDEEEIGDDAQETVDFSGVEVGKMYEIVVTTYRGFFRYRLGDVVRVVGFHNTSPEVEFVMRAPKTPAEILTERDLMTAMGNFQLVLRTVKMPDVTEFASFFDLDSIPKQLKIFLEVAGVLQDEKLQELGSVLRRNFSSLEDGLGGVYKLRKGRGEVGPLLVSIVKPGSFNRLLQMATENGAPASQYKPPKIIRNLEIVHFMEGSALLTVSFDSSD"}, "B3": {"name": "PtGH3-14: GH3 protein, accession EEE99364 (protein, listed as Populus trichocarpa)", "chain": "MTYDELDRNLEDLTKNAAHHQLQTLHSILQHQASVGYLQPYLSACHAPVDAATFRSQVPLSSYDDYFHLINQLANGDIDHHQPLLSADPLLCFFYSSGTSTMKPKLIPYFDSALSKAASYNAHQGSAAIFRNLVPPRPEVNKILWFLYADDAPTTRGGFKVMAASTYPLQGNKSRSNWSQTLSCISPREVVFGSNIKQQMYCHLLCALRSFDIIDGIRAAYAAGLIRAFSLLESKWEKLCDDLESGFPSLEIGDAAMKESVVEFLGGPQVDLSRRIREICAESNWGGILSKLWPNVRYVKSVTTGSMKQYYSKLKYYAGDVMILGGDYFASECCLGINLDIQQPPESTRFVMLPTTAYFEFLPFDLNESSVVGEETVDFSGVKVGKMYEVAVTTYRGLYRYRLGDIVRVVGFHNSSPLVEFVMRAPKTGYEIITEKDLMSAMESFQHSMAAEVVEFASFSDFELSPKRLKVFIEFREGCDFLQEEKLQGSVEALQRCCSSLENGLGEIYKVQKDRGEIGPLLVSVVRSGSFDGILQMAIKNGAPAGQYKPPKIIRNREIVDFMEESAVLTISLDSFHG"}, "B4": {"name": "AtGH3-14: GH3 protein, accession CAB87143 (protein, listed as Arabidopsis thaliana)", "chain": "MLPKFDPTDQKACLSLLEDVTTNVKQIQDSVLEAILSRNAHTEYLSGFLNGQADKKSFKKNVPVVTYEDIKPYIDRIANGEPSDLICDRPISVLLTSSGTSGGVPKLIPLTTEELEQRISFASLYRPLLYKYIEGIRERKSFMLYFVTRESETASGILVRTMITCVLKSVTPANSFIWDQSQISPHAITTCSDTTQSMYCQLLCGLLQRDNVGRLGAPFASSFLKIIKFLEDHWPEFCSNIRTGCLSDWITDPQCVSGIGKFLTAPNPELASLIEQECSQTSWEAIVKRLWPKAKCIEAIVTGTMAQYNPLLEFYSGGLPVISTFYGSSECFFGLNLNPLSKPNEVSYTIIPCMAYFEFLEVEKDYESGHDPAENPVVVDLVDVKIGHDYEPVVTTFAGLYRYRLGDVLRVTGFYNNAPQFHFVGRQKVVLSIDMDKTYDEDLLKAVTNASLLLEPHDLMLMDFTSRVDSSSYPGHYVLYWELGRKVKDAKLELDQNVLEECCFTIEESLDAVYRKGRKNDKNIGPLEIKVVKPGAFDKLMNFFLSRGSSVSQYKTPRSVTNEEALKILEANVVSEFLSQKTPSWELHELHSSR"}, "B5": {"name": "SbEES08587: GH3 protein, accession EES08587 (protein)", "chain": "MSTSPAVLDHDHGHHRLLSSVSPPTTTTDSPATAMPPRAPSSLPPTIPACDPHDGPASLQLIEDLTTHAGAIQQRVLREILAMNAGTDYLRGFLGAGAEGRDADELAATFKDRVPVVEYEDVKPYIERIANGAPSSLISSKTITELLTSSGTSGGQPKLMPSTEEELDRKTFLYNLLVPVMNKYVEGLDKGRCMYLLFVKPEITTASGLVARPVLTSYYKSRHFRERPDSPYTRYTSPNEAILCPDSAQSMYAQLLCGLARRGEVLRVGAVFASAFLRAVKFLEAHWRALCDDIRAGRVDASRVTDAACRDAVARVVARPDPALADAIAAECEGSSSSSWRGIVRRLWPRTKYIDVIVTGSMAQYIPLLEFYGGGLPLVSTMYASSECYFGINLRPLDPPEDVAYTLLPNMCYYEFIKVEKDGEEAREDGKVVDLVDVEAGGYYELLVTTFTGLYRYRVGDILQVSGFHNAAPQFRFVHRRNVVLSVDTDKTSEDDLLRAVTAAKRLLAPLGGATILSEYTAYADTASIPGHYVLFWELTPTPPMPGDGDTAARVMAACCAEVEAGLDAVYQRCRSRDRSVGPLEIRVVSTGAFDALMDLCVSHGSSVNQYKTPRCIKHPDAIAVLEARVVGRFFSDTVPHWEPFNVVDTAAAGAAATTTPSLNEGAT", "modifications": "Sorghum bicolor"}, "B6": {"name": "RcGH3-17: GH3 protein, accession XP_002531876 (protein, listed as Ricinus communis)", "chain": "MDGKKLEYKGEAALEEIEKLTEKADEVQESILREILIQNGQTEYLSKYIKGSKDVKEFKYCVPVTTYKDMYPYIQRIANGEDSSLITGRPITEMLCSSGTSAGEPKLMPSINEDLDRRTFIYNLVMPIMNQYISGLDEGKAMYLYFVKEEMSTPCGLPARTVLTSYYKSKHFKCRARDSFNDFTSPDQAILCKDSDQSMYCQLLSGLVYRHQVLRIGAVFASALLRAISFLERNWVHLCNDIRNGELDPMITDPECRSCMSMILSSPNPSLADEIEEICSRPSWKGILCLLWPRTKYIEAVVTGSMAQYVPSLKYYSERKLPLVCTMYASSECYFGVNLKPLSDPAEVSFTLMPNMCYFEFIPLGENGTLLMDVDEEEKVPIHKLVDLVHVRRGCYYELVVTTFAGLYRYRIGDVLQVTGFHNQAPQFRFICRRNVVLSIDNDKTNEEDLHKSISTAKKLLEPYNAILVEYTSYAETLVVPGHYVLYWEILHHSSVVNHNQTPLDAEVFQECCIAVEEELDYIYRRCRTHDKSIGPLEIRVVEPGTFEALMDLFIGQGGSINQYKTPRCIKSNAALMLLNSHVKASFFSARDPVWIP"}, "B7": {"name": "PtGH3-9: GH3 protein, accession EEE81977 (protein, listed as Populus trichocarpa)", "chain": "MDGKKLEYKGWVALKEIERLTEKADEVQETILKAILMQNGETEYLSKYMKGSKDVDEFKFHVPVITYKDVCPYIQRIATGEDSSLVTGHPVTEMLCSSGTSAGEPKLMPSIAEDLDRRTFVYNLIMPIMNQYIFGLDEGKAMFLYFIKAEMSTPCGLPARTVLTSYYKSKHFKCRTRDAFNDFTSPDQAILCKDSNQSMYCQLLSGLVHRHQVLRLGAVFASAFLRAISFLERNWGRLCNDIRSGDLDPTITDPECRSCMSMLLTSPNPSLADEIEDICSNTSWKGILCHLWPRAKYIEAVVTGSMAQYIPSLEYYSEGKLPLVCTMYASSECYFGVNLKPLCDPADVAFTLLPNMCYFEFIHLGENGTWLVNKDEEGEVPNDKLVNLVNVRLGSYYELVVTTFAGLYRYRIGDVLRVTGFHNKAPQFQFICRRNVVLSIDNDKTNEEDLHKSITAAKKLLEPYDALLVEYTSYADTSSVPGHYVLYWEILHDASFPDSSAQLDVKLLQECCISVEEELDYVYRRCRAHDKSVGPLEIRVVESGTFEALMDFFIGQGASINQYKTPRSIKSNAALKLLNSHVKASAFSPRDPAWIP"}}, "data": [{"test": "LC-MS assay of GH3 conjugation of IAA with Asp or Glu", "format": "biochemical", "details": "conjugation of IAA with Asp by recombinant GH3 protein; IAA-Asp product by LC-MS", "summary_of_the_method": "(§1)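 Amino acid conjugates of IAA, 2,4-D or dicamba measured by LC-MS against conjugate standards, with kinetic parameters fitted to Michaelis-Menten initial velocities. Reactions: 5 mM each of auxin, ATP and Asp or Glu with 44 to 164 μg/mL purified His-tagged GH3 (E. coli-expressed), pH 8.0 Tris, 5 mM MgCl2, 1 mM DTT, 30 °C for 3 h.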", "units": {"kcat (hrs−1) IAA-Asp": "h⁻¹"}, "values": [{"molecule": "B1", "kcat (hrs−1) IAA-Asp": 0.000}, {"molecule": "B2", "kcat (hrs−1) IAA-Asp": 0.000}, {"molecule": "B3", "kcat (hrs−1) IAA-Asp": 0.000}, {"molecule": "B4", "kcat (hrs−1) IAA-Asp": 0.000}, {"molecule": "B5", "kcat (hrs−1) IAA-Asp": 10.251}, {"molecule": "B6", "kcat (hrs−1) IAA-Asp": 4.366}, {"molecule": "B7", "kcat (hrs−1) IAA-Asp": 4.487}]}, {"test": "LC-MS assay of GH3 conjugation of IAA with Asp or Glu", "format": "biochemical", "details": "conjugation of IAA with Glu by recombinant GH3 protein; IAA-Glu product by LC-MS", "summary_of_the_method": "as §1", "units": {"kcat (hrs−1) IAA-Glu": "h⁻¹"}, "values": [{"molecule": "B1", "kcat (hrs−1) IAA-Glu": 0.000}, {"molecule": "B2", "kcat (hrs−1) IAA-Glu": 0.000}, {"molecule": "B3", "kcat (hrs−1) IAA-Glu": 0.000}, {"molecule": "B4", "kcat (hrs−1) IAA-Glu": 0.000}, {"molecule": "B5", "kcat (hrs−1) IAA-Glu": 389.161}, {"molecule": "B6", "kcat (hrs−1) IAA-Glu": 10.433}, {"molecule": "B7", "kcat (hrs−1) IAA-Glu": 21.980}]}, {"test": "LC-MS assay of GH3 conjugation of IAA with Asp or Glu", "format": "biochemical", "details": "result in words", "summary_of_the_method": "as §1", "values": [{"molecule": "B1", "IAA conjugation activity with Asp or Glu": "IAA-inactive"}, {"molecule": "B2", "IAA conjugation activity with Asp or Glu": "IAA-inactive"}, {"molecule": "B3", "IAA conjugation activity with Asp or Glu": "IAA-inactive"}, {"molecule": "B4", "IAA conjugation activity with Asp or Glu": "IAA-inactive"}]}, {"test": "LC-MS assay of GH3 conjugation of 2,4-D with Asp or Glu", "format": "biochemical", "details": "conjugation of 2,4-D with Asp by recombinant GH3 protein; 2,4-D-Asp product by LC-MS; 5 mM 2,4-D substrate", "summary_of_the_method": "as §1", "units": {"kcat (hrs−1) 2,4-D-Asp": "h⁻¹"}, "values": [{"molecule": "B1", "kcat (hrs−1) 2,4-D-Asp": 0.000}, {"molecule": "B2", "kcat (hrs−1) 2,4-D-Asp": 0.000}, {"molecule": "B3", "kcat (hrs−1) 2,4-D-Asp": 0.000}, {"molecule": "B4", "kcat (hrs−1) 2,4-D-Asp": 0.122}, {"molecule": "B5", "kcat (hrs−1) 2,4-D-Asp": 0.044}, {"molecule": "B6", "kcat (hrs−1) 2,4-D-Asp": 0.000}, {"molecule": "B7", "kcat (hrs−1) 2,4-D-Asp": 0.065}]}, {"test": "LC-MS assay of GH3 conjugation of 2,4-D with Asp or Glu", "format": "biochemical", "details": "conjugation of 2,4-D with Glu by recombinant GH3 protein; 2,4-D-Glu product by LC-MS; 5 mM 2,4-D substrate", "summary_of_the_method": "as §1", "units": {"kcat (hrs−1) 2,4-D-Glu": "h⁻¹"}, "values": [{"molecule": "B1", "kcat (hrs−1) 2,4-D-Glu": 0.018}, {"molecule": "B2", "kcat (hrs−1) 2,4-D-Glu": 0.028}, {"molecule": "B3", "kcat (hrs−1) 2,4-D-Glu": 0.015}, {"molecule": "B4", "kcat (hrs−1) 2,4-D-Glu": 0.233}, {"molecule": "B5", "kcat (hrs−1) 2,4-D-Glu": 0.554}, {"molecule": "B6", "kcat (hrs−1) 2,4-D-Glu": 0.027}, {"molecule": "B7", "kcat (hrs−1) 2,4-D-Glu": 0.305}]}, {"test": "LC-MS assay of GH3 conjugation of 2,4-D with Asp or Glu", "format": "biochemical", "details": "result in words", "summary_of_the_method": "as §1", "values": [{"molecule": "B1", "2,4-D conjugation activity with Asp or Glu": "2,4-D conjugases"}, {"molecule": "B2", "2,4-D conjugation activity with Asp or Glu": "2,4-D conjugases"}, {"molecule": "B3", "2,4-D conjugation activity with Asp or Glu": "2,4-D conjugases"}, {"molecule": "B4", "2,4-D conjugation activity with Asp or Glu": "2,4-D conjugases"}]}]}
